Consider two substances from article PMC4677347.

Experiment [1] concerns the target human proteasome α6 subunit, short isoform (human) (UniProt P25786). Nature of the experiment: AUC; sedimentation velocity, α6 alone, 150 mM potassium phosphate pH 7.4, 55,000 rpm, c(s) analysis in SEDFIT.
For experiment [2] the target is unchanged. Briefly: native MS; α6 alone at 5, 10 and 20 μM monomer, 150 mM ammonium acetate pH 7.5, nanoflow ESI under non-denaturing conditions.
In experiment [3] the target is human proteasome α7 subunit (human) (UniProt P25788). Briefly: AUC; sedimentation velocity, mixture of α7 and α6 at 1:4 molar ratio (α7 tetradecamer to α6 monomer), 150 mM potassium phosphate pH 7.4, 25,000 rpm.
The target is the same in experiment [4]. Nature of the experiment: native MS; α7 (2 μM tetradecamer) mixed with α6 (0.5, 1, 2, 4 and 8 μM monomer) at pH 7.5, incubated at 20 °C for 1 h, nanoflow ESI under non-denaturing conditions.
The target is the same in experiment [5]. Nature of the experiment: AUC; sedimentation velocity, α7 alone, 150 mM potassium phosphate pH 7.4, 25,000 rpm, c(s) analysis in SEDFIT.
The target is the same in experiment [6]. Briefly: native MS; α7 alone, 28 μM monomer, 10 mM ammonium acetate pH 6.8, nanoflow ESI under non-denaturing conditions.

A word on the stoichiometry N: it is a count of units in the complex or per binding partner. In the case of “human proteasome α6 subunit, short isoform (from UniProt P25786 1-263) (natural protein)”, the stoichiometry N in experiment [1] was 2; in experiment [2] it was 2; in experiment [3], 7 α7 per α6; in experiment [4] it was 7 α7 per α6.
On to “human proteasome α7 subunit (from UniProt P25788 1-255) (natural protein)”, for which the stoichiometry N in experiment [5] is 14; in experiment [6] it was 14; in experiment [3] it was 7; in experiment [4] it was 7.
